For data set [1], the target named is T1, CDT1^ΔN (N-terminally truncated CDT1^158-546) (human, UniProt Q9H211 158-546).
T1 chain: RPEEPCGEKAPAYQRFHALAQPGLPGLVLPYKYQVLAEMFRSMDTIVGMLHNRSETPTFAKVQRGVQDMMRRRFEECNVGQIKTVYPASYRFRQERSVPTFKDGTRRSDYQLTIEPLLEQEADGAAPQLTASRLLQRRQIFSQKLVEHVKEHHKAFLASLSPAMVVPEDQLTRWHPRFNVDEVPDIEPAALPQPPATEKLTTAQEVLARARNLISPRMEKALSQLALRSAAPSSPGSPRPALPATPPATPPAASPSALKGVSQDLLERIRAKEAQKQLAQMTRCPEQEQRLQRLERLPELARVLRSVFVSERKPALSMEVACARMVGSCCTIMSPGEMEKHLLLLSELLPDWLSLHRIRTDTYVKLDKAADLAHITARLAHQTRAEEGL
The data set can be described thus: SPR. Background: SPR reads the build-up and loss of mass on a sensor chip optically.

Data set [2] deals with the molecule itself. Description: SEC-MALS; Superdex 200 Increase 10/300 GL; peptides 500–1000 µM, 100 µL injected; 10 mM HEPES, 150 mM NaCl, 1 mM TCEP-HCl, pH 7.5; 0.25 mL/min. Background: In gel filtration, larger molecules generally elute earlier.
Data set [3] deals with T2, CDT1^ΔN (N-terminally truncated CDT1^158-546) (human, UniProt Q9H211 158-546).
T2 construct: CDT1, human, UniProt Q9H211, residues 158-546 (lacks the unstructured N-terminus); Plasmid is in Supplementary Data 1; The His tag serves for capture on the NTA chip in the SPR with peptides; also called standard CDT1 construct; source: E. coli BL21 (DE3), purified (HisTrap Excel, POROS HS, Superdex 200); not shown: His6, N-terminal, kept
T2 sequence (looked up): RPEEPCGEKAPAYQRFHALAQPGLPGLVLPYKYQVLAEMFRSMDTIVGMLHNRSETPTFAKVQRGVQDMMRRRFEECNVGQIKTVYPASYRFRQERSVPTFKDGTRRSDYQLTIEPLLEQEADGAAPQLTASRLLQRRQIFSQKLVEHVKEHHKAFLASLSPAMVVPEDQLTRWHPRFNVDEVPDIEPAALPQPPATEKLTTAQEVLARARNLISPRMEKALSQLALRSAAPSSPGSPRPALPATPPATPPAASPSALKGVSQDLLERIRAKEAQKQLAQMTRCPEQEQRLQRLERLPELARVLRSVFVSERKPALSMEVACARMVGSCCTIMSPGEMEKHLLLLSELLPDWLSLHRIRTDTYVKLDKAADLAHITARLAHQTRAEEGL
The data set can be described thus: SPR; multi-cycle; CDT1^ΔN captured by its N-terminal His tag on an NTA chip; geminin peptides 0.49–250 nM (two-fold steps); 25 °C; 10 mM HEPES, 500 mM NaCl, 50 µM EDTA, 1 mM TCEP-HCl, 0.05% Tween-20, pH 8.0; 1:1 kinetic model of analyte dimer:CDT1, steady-state 1:1 model for Gem^96–160 and Gem^102–160. As to conditions: both partners purified.

The target in data set [4] is T1, CDT1^ΔN (N-terminally truncated …). Description: SPR.
Data set [5] has the same target. The data set can be described thus: SPR.
Data set [6] has as its target T2, CDT1^ΔN (N-terminally truncated …). The data set can be described thus: SPR; CDT1^ΔN with Gem^LINK; steady-state 1:1 binding model; chip and cycle format not stated for Gem^LINK; 25 °C; 10 mM HEPES, 500 mM NaCl, 50 µM EDTA, 1 mM TCEP-HCl, 0.05% Tween-20, pH 8.0. The following applies: both partners purified.
Data set [7] deals with T1, CDT1^ΔN (N-terminally truncated …). The data set can be described thus: SPR.
The target is the same in data set [8]. Description: SPR.

Where two headings read alike, the source gives them in different places.

B1: Gem^96–145 (peptide, UniProt O75496 96-145, looked up)
peptide: Ac-SQYWKEVAEKRRKALYEALKENEKLHKEIEQKDNEIARLKKENKELAEVA-NH2
notes: geminin, human, UniProt O75496, residues 96-145; Made on Rink amide resin; source: synthetic peptide
In general, koff refers to the first-order rate constant of dissociation. The low end stands for slow dissociation, the high end for fast dissociation. The term stoichiometry N denotes a count of units in the complex or per binding partner. Broadly, the Kd is a measure of binding affinity in units of concentration. Low values mean tighter binding, high ones weaker binding. Consider B1, for which the koff in data set [1] amounted to 0.031 s⁻¹. Moreover, the “stoichiometry N” value in data set [2] turned out to be 2. Also, the dissociation constant Kd in data set [3] turned out to be 38 nM.

B2: Gem^96–140 (peptide, UniProt O75496 96-140, looked up)
peptide: Ac-SQYWKEVAEKRRKALYEALKENEKLHKEIEQKDNEIARLKKENKE-NH2
notes: geminin, human, UniProt O75496, residues 96-140; Made on Rink amide resin; source: synthetic peptide
Regarding B2, the koff in data set [1] was determined as 0.022 s⁻¹. In data set [4], the Kd was determined as 32 nM. Besides, in data set [2], the “stoichiometry N” value worked out at 2. In addition, the binding result in data set [3] was “binds”.

B3: Gem^76–145 (chemically synthesised peptide) (peptide, UniProt O75496 76-145, looked up)
peptide: Ac-KNLGGVTQESFDLMIKENPSSQYWKEVAEKRRKALYEALKENEKLHKEIEQKDNEIARLKKENKELAEVA-NH2
notes: geminin, human, UniProt O75496, residues 76-145; Made on Rink amide resin; The recombinant recGem^76–145 is another molecule, used only in licensing assays; source: synthetic peptide
In data set [5], B3 displayed a koff of 0.0034 s⁻¹. Moreover, the “stoichiometry N” value in data set [2] was determined as 2. This molecule had a Kd in data set [3] of 5.7 nM.

B4: Gem^LINK (geminin with a short glycine linker between the two CDT1 interaction interfaces) (natural protein)
chain: MNPSMKQKQEEIKENIKNSSVPRRTLKMIQPSASGSLVGRENELSAGLSKRKHRNDHLTSTTSSPGVIVPESSENKNLGGVTQESFDLMIGGGGGKENPSSQYWKEVAEKRRKALYEALKENEKLHKEIEQKDNEIARLKKENKELAEVAEHVQYMAELIERLNGEPLDNFESLDNQEFDSEEETVEDSLVEDSEIGTCAEGTVSSSTDAKPCI
modifications: Full-length geminin with a 5x Gly insertion between I90 and K91 (K96 in post-insertion numbering; no deletion, since mutant residues 76-165 correspond to WT 76-160). Homodimer assumed as for wild …
Molecule B4 registered an equilibrium dissociation constant (Kd) in data set [6] of 38 nM. This lies in the double-digit nanomolar range.

B5: Gem^82–145 (peptide, UniProt O75496 82-145, looked up)
peptide: Ac-TQESFDLMIKENPSSQYWKEVAEKRRKALYEALKENEKLHKEIEQKDNEIARLKKENKELAEVA-NH2
notes: geminin, human, UniProt O75496, residues 82-145; Made on Rink amide resin; source: synthetic peptide
For B5, the koff in data set [5] was found to be 0.0032 s⁻¹. In addition, the “stoichiometry N” value in data set [2] stood at 2. In addition, the Kd in data set [3] worked out at 5.8 nM.

B6: Gem^76–135 (peptide, UniProt O75496 76-135, looked up)
peptide: Ac-KNLGGVTQESFDLMIKENPSSQYWKEVAEKRRKALYEALKENEKLHKEIEQKDNEIARLK-NH2
notes: Made on Rink amide resin; source: synthetic peptide
For the molecule B6, the Kd in data set [7] came out at 7 nM. The same molecule came in with an off-rate constant (koff) in data set [8] of 0.0029 s⁻¹. Moreover, the “stoichiometry N” value in data set [2] stood at 2. Further, the binding result in data set [3] is listed as “binds”.

B7: Gem^102–160 (peptide, UniProt O75496 102-160, looked up)
peptide: Ac-VAEKRRKALYEALKENEKLHKEIEQKDNEIARLKKENKELAEVAEHVQYMAELIERLNG-NH2
notes: geminin, human, UniProt O75496, residues 102-160; Made on Rink amide resin; source: synthetic peptide
Consider B7, for which the “stoichiometry N” value in data set [2] was found to be 2. For the same molecule, the affinity in data set [3], expressed as Kd, was 2800 nM.

B8: Gem^96–160 (geminin coiled-coil peptide) (peptide, UniProt O75496 96-160, looked up)
peptide: Ac-SQYWKEVAEKRRKALYEALKENEKLHKEIEQKDNEIARLKKENKELAEVAEHVQYMAELIERLNG-NH2
notes: geminin, human, UniProt O75496, residues 96-160 (the full coiled-coil); Made on Rink amide resin; source: synthetic peptide
Regarding B8, in data set [4], the Kd came out at 21 nM. Moreover, the “stoichiometry N” value in data set [2] came to 2. For the same molecule, the binding result in data set [3] is listed as “binds”.

B9: Gem^76–140 (peptide, UniProt O75496 76-140, looked up)
peptide: Ac-KNLGGVTQESFDLMIKENPSSQYWKEVAEKRRKALYEALKENEKLHKEIEQKDNEIARLKKENKE-NH2
notes: geminin, human, UniProt O75496, residues 76-140; Made on Rink amide resin; source: synthetic peptide
Take B9: in data set [7], the Kd came to 11 nM. Further, in data set [8], the koff worked out at 0.0033 s⁻¹. In addition, the “stoichiometry N” value in data set [2] was 2. Besides, the binding result in data set [3] is given as “binds”.

B10: Gem^90–145 (peptide, UniProt O75496 90-145, looked up)
peptide: Ac-IKENPSSQYWKEVAEKRRKALYEALKENEKLHKEIEQKDNEIARLKKENKELAEVA-NH2
notes: geminin, human, UniProt O75496, residues 90-145; Made on Rink amide resin; source: synthetic peptide
Take B10: in data set [5], the koff stood at 0.045 s⁻¹. The “stoichiometry N” value in data set [2] was 2. The affinity in data set [3], expressed as Kd, was 93 nM.

B11: Gem^96–135 (minimal CDT1-binding peptide) (peptide, UniProt O75496 96-135, looked up)
peptide: Ac-SQYWKEVAEKRRKALYEALKENEKLHKEIEQKDNEIARLK-NH2
notes: as for B6
B11 gave a koff in data set [1] of 0.024 s⁻¹. Besides, the affinity in data set [4], expressed as Kd, was 22 nM. Further, in data set [2], the “stoichiometry N” value was 2. Besides, the binding result in data set [3] was “binds”.
